The source of these data is the domain aggregation screens of Martell et al. (2025).

Some results are limits rather than exact numbers.

A short description of this data set: soluble fraction after stress (log2 fold change); higher = more stays soluble; pooled small domains, quantitative proteomics. Conditions: stress: pH 4. The gist of the method: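 Aggregation propensity here comes from the fold change in the soluble amount of each small protein domain after acid stress, measured in pooled custom libraries by high-throughput quantitative proteomics. The acid stress was pH 4. On the log2 scale, higher values mean more of the domain stayed soluble.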

For the sequence “HMILNWSEYTRSEIIELARDLSPDKYMIIDDINTYSKMKLLPSQAFIAEMFGSLRQFQKEAWGRE”, the “soluble fraction (log2)” value was -1.27.
For “HMILPKFNQLLGQMGENIKLARKRRKLTAVQVSERAGIARSTLYLIEKGDASVSLGAYFNVLRVLG” the value was -0.214.
The result for “HMIMEVDYGTFMKMTEENAIGRVQMDSTEIIFTDKENTQVYSTGIMYDPDLTQRLYDAGAVFA” reads -1.58.
The result for “HMIMGTIEKRGPFSFRIGVQVRLPDGSWEWIRDTIHVSPDLSARAARKQAEMALARLEADVYEGKRKPD” reads -0.0141; that for “HMIMLDRILKIMDYNKFTPSEFADVLEIDRSRLSHILNGRNKPSLEIVMKILEKFPEISSDWLLFGSGNML”, -2.01.
As for “HMIMNEYEELRDRYLIGQIWKIGDLIEAKGIEGKIIQRGTNYVTFNDNNGKVHKAWLHEIKYEQ”, the “soluble fraction (log2)” value is -0.559.
On to “HMIMNKEIPVVADEFVEKEFGTGAVKLTPAHDPNDYESGERHGLEVVEVFDETGKMNDLVPEYEG”, for which the “soluble fraction (log2)” value is -0.0198.
For “HMIMTGSIQEKNGKYYTVLNIKDKNGKYKKKWQTTGLPVKGNKRKAEQILRRRIAEYEANQL”, the “soluble fraction (log2)” value is at least 0.43.
The result for “HMIMTHSALLEKDGFDIVKVHFERPNDDGFDFLDMTLPGEIVYKSFGFSEDEILKLKRYAKNNSSLIWDF” reads -1.87; that for “HMINEDMTQSDRMELWGRLIDVVEDWLAEKGITEEDIPNEEREGVEDAAIIFGDDYDYLADRFSEVIGISR”, -1.99.
For “HMINFKVKNVQDVGSRLDKFLVTNIPEFSRSKIQKHIKNGKVMVNGLLKKTGYKLEINDEINILNN” the value was 0.198.
The result for “HMINLDYILELIFEKNNKTKDKTALIEEIRGVIRASVGNRAKESLIVDFINDTDLDTITDKASIIESFFEY” reads -2.64; that for “HMINLTKVGNFISIIKLQQIWTIDELLKKVDINYDELLYLLTILSDIYSKNGEYFFDFDIDAENNKILFNN”, -0.3; that for “HMINVGYKFKQIRENAGLTLKQVSAMSGLSVSFISQIERGVVDPSWSSLKKISAALNIKLKDLF”, -0.449.
On to “HMIPDLPAIGENLYRERKRQQLSMAELAAASGISKAMLSQIEADKVNPTIATLWKIAHALHVDLESLISGG”, for which the “soluble fraction (log2)” value is -0.0815.
The result for “HMIPDPEKVMFDGGIRLLTQAGITEGKARSILGKWKRDHETERIIAALGAAQREGAIEPVSFIERVLRN” reads -0.475.
The result for “HMIPKIIDITDLNEEVREVIEEYMKRKRVEKYHIYQDSKGQIFIISGSAIIRYDSKLNNLYYL” reads -0.395.
On to “HMIPLKTEAIPVSYGDGAAIIRSLAVAFPSRTFHWDAQTRRIIGQALDEEWQVIRSLVWQLDIP”, for which the “soluble fraction (log2)” value was -1.06.
Turning to “HMIPLSDEETILLKLLEATETHLDALIRGSQLSAAKVSVVLMGMEMKRLVKRLPGQMYQRWD”, the “soluble fraction (log2)” value is -1.55.
For the sequence “HMIPRNLEDLVRENQIGLVILKIVEIIGEDNIRDLDPETIYFINRILNELNLKKIRNNILSEALPPR”, the “soluble fraction (log2)” value is -0.8.
As to “HMIPSEQYNTALTEIGLSTRAHNSLRRAGIMTLGQLIEKTRDGLPPLPGFGDKSQVEVQDLLTGLGYPI”, the “soluble fraction (log2)” value was -1.03.
For “HMIPSGISEHPISKLPLSMSIIHRLELAGIKTIGDITGENFSRLQEIPRIGKVTAKRILEAIQSYSEQLP” the value was -0.273; for “HMIPYQDPLPKGAEESLLSKYPGFEITGVHFVNDTNFIGYKVRLERGEDREEISLDVNGKFL”, -0.169.
For “HMIQADFIPQVEQRLADRGLSMSGDVMAAFLDRAGYGLRHVSNEIEKLSLYLGDRKKVTVEDVVQMVAPVR” the value was -0.415.
For “HMIQAGDLVFIWNPKKGDNFLIKVTPGMSQGTHFGQIKHTELMEREYGEGIVTPKGEVYYLLRPTLAGYTR” the value was -1.3; for “HMIQIGEQIRYYRTKIGISQEALALMADINPAYIGQIERGIKSPTVNTIKKIANAMGINLHTLFT”, -0.434; for “HMIQKTHPALEIVKEYFSSQAASEFEAERFFNYYTSNGWLIGGKTKMKDWQAAARNWILNTAK”, -0.255.
With “HMIQNEITLMLQVNGKLRGQIQVPSDASKEQIEQLAKDSEAAQKALAGASPKKIIVVPGRLVNIV”, the “soluble fraction (log2)” value stood at 0.183.
The result for “HMIQQFTYAFAKDKGVVVLPGRDVLTLGMRAGADPLVLLEARRALGSSFELEPLDRDTYERTLADVFTADA” reads -1.41.
For “HMIQRLNVNTEVLSTYIRNSNTPIEYLRQKLPNIDKFLKGELEPTFNQVYALSKLINIPTGLLLLKEPIS” the value was 0.359; for “HMIQSEQIPFSKFLKEVDSGRVVQVEIQGNNINGVLSDGSKFKTYSPNYPELVGKLSDKGVSIVASPV”, 0.0829.
Consider “HMIQTKNVTFTINEKTKIANIPLKSLKILSQEDNRITLSYEKNSLKIDEIISYFSDKNINILDITTD”, for which the “soluble fraction (log2)” value was -1.05.
For “HMIQYRKILELHFKDISQRTISTSVGSSRNTVSDVIKRSEQLGLERLTDNMNNRWLEEFLFPEKQ” the value was -0.177; for “HMIRALVPGQTLHGEIVGRNGGEVQVRLAEDMILNARVDQNIYLELGKDLTFEVKNNGATLTLSPL”, -0.552; for “HMIRDTTMYPVSVNGKKRYEWTVSKSISDDELKQQVLELEEIKKWIEGHEIKKLIFVPGRAINIV”, -0.743.
For “HMIRDVDYNTFVSMVQEGKVGQVEIQEQNNRILFTDKDERTVYKTAMVPDSDLISRLLEAGVSTS” the value was -0.737; for “HMIRTGEVVTGKVINVKEDQIILNIGFKSDGIITRNEYTNDNSLDLRTVVHEGDEIEAKVLKVNDGEGQVV”, 0.12.
The result for “HMIRVGRPQYKRGEFVSFDFDNGRKKTEMYGRVDVIDSYGTFGQGREVSYDIRASDGILYKHIPESSVYGF” reads 0.28; that for “HMIRVVSIEDQPWFVAADVLKSLGMPTDKGVGKYLLALGSDERMLTTHGQIGGKGMAVTTIISESGLY”, -0.703.
On to “HMISDAEWKIMNVLWEEQPRTMMQITKELQEETGWTKHTVMTYLKRMESKKIIHYVEGEKAKLYYS”, for which the “soluble fraction (log2)” value was -0.136.
On to “HMISDDLYQAVLDFTLTQDTISISRLQQNFNLGWPRARQLYDQLMQNGIIEPPDEANSAKGAVVIANKRG”, for which the “soluble fraction (log2)” value was -1.06.
The result for “HMISIKEAVFPFSRFPGVDTLLGPEMKSTGEVMGLADNFGHAYAKSQIASGSKLPESGTLFVSVKNSD” reads 0.0851.
As to “HMISKRFQIDEENAHKRIDIFLSHEFDSISRGIVQELIVKGEVLVNDKVTKRNYKLKTGDLVDITINL”, the “soluble fraction (log2)” value came to 0.247.
For “HMITDQQKEQLSSLLKQAEAALAKAAANDQVLAAHKDEAVELLKSTSATSADAADLINELTELLKPYQ” the value was -0.605; for “HMITEDQVIARIGLLSPAEKSLLKDKLERFRRLTLSEQQHLREFHSALDNHDKRTDLLNVLRKYNDWVNQL”, -0.736.
The result for “HMITEQEFQRVAAYVKNKAGINLNEKKVLVQGRLDSYMQRKGYSSYDEFMDRVERFPTGPEAEDLMNALTT” reads 0.0246.
For “HMITFRINQQSQVGLRLDKFIVQQMPDYSRTRIQSWIKTKNILVNGEGKKSGYALEFDDLVEVTIPE”, the “soluble fraction (log2)” value came to 0.0398.
For “HMITGREMDVLEALWSSEKPLVASDIPKMKPSLSISSVQLALRNLVKKKLVEVADIVYSGTVLSRSYRP” the value was -0.477; for “HMITIDNYFNKEKELDFSSFPEALRKGHGFVSKATAHGSSWVSYHSSDAIKKTIDIYLSKLNEYLSNNAKA”, 0.0989.
The result for “HMITLYDLLGVSKTASSQEIKTAFKKKALQYHPDKNDGNPDKEEIFKRINMAYQVLGQPQSRANYDFSITP” reads 0.0886.
Turning to “HMITNMIIIMKPNASEEAIEKVKHLIESKGLQAHLSKGDEVTIVGVVGDKTRLHDSNIEISEGVDKIVNVT”, the “soluble fraction (log2)” value is -0.0219.
The result for “HMITPAGVPPALLPVFDQFTLPDGTLRRGAVAAALRALYGPDAPQSGKRYQMEYDRVMAWHSQYFTSLH” reads -0.42; that for “HMITPKQTAETLGIATSTLRRWASEFEPFLSLRTGVKRTYTTDDITTLKRVKDLFAQGLKTEQVREAL”, at least 0.43; that for “HMITPNQAAVTLKVSTSTLRRWSSDFEPFLSPRKGVKRLYTIEDIATLKRIQGLYKQGMNTAQVQA”, -0.0332.
The result for “HMITQQEFQQKLEALLSRAEAESFHIKKEEAESFFSGDELTGEQMKLVFDYLLSKKIIVEGYLK” reads 0.0629.
For “HMITTEEVLNRIRKKVDHPATIRELQKALSIADDDRHRFRRRIRTLVASGALVRIRGNRYGLPSK” the value was 0.0429; for “HMITTWAGKATTDVYGRVDANPKADAVLVIKTGWTVQVVGSKTAPDGGTWYKLIYNGKTMYANSKFIVK”, 0.00106.
Take “HMITVEAPMPGKVLSVNVKAGDKVEAGDVLLILEAMKMQNEIMAPEDGTVSDVRVSAGDTVATGDVMVV”: the “soluble fraction (log2)” value is -0.33.
For “HMIVIMAKESSPAELEGVKNRIESHPGLRPQVFDGVERIVVGVLGSIPPDLKDEIELLPGVIEVVPISK” the value was -0.211.
The result for “HMIVVLKHGVTEQQMRNLIAWFKDQGVDVHVSRGIYQTVLGLVGDTSDIDVDLLRMLDIVDAVKRIT” reads -0.785; that for “HMIVVMAADSSREDLDLVQGRIEARGLRAQISQGVERIVIGVLGSLPPDLKDEMELLPGVREVLVIS”, -1.19; that for “HMIYGNGVTDLKDLANGATIIIPADDSNETRALFLLQQEGLIKLPDDADAAKGVSTLDIVDGGGWVTSM”, -0.381.
The result for “HMIYKLIADRLKNRINSDEFEVGDALPSEKALAGELEVSVMTIRKALTLLESEKLIVKRHGSGSYVARKSN” reads 0.0567; that for “HMIYRTTSVPIDNISTQKFNLQEGWIEMNKNEVEDFIRQKNLELVVTDSNVMLDKFALNGDPNKFKVFKY”, 0.104; that for “HMKADTSPEAQKKIIAAFEPYSVNKDQIEKLIQRRIDSITPAQVIRLRKILASLKDGMSSPEDWFE”, 0.076.
As for “HMKAERLLALLTILLSGKRVSARWLSEELEVSERTVYRDVEALSEAGFPVYATTGRDGGFSLIDGF”, the “soluble fraction (log2)” value was -1.18.
As for “HMKAKPTLLTPYEERLKGWLETDSRRPKRDRRTGLALFAKLQQEGFTGSYTRVTEYIRRWRDSGG”, the “soluble fraction (log2)” value is 0.0729.
The result for “HMKALPSAEDVALARESGRVLSTVLQTRAETQQIDFHDDKGAVRSVTLPTTALRLLLDVLTEIGQGNAV” reads -0.161.
